This passage reports half-life of association with MTs, percent of filaments dissociated within 2.5 minutes and half-life of plus end to plus end tethering of two MTs by KLIF results from article doi:10.1101/2021.11.04.467292.

Test [1] has as its target microtubules polymerised from bovine tubulin, paclitaxel-stabilised (bovine) (UniProt Q6B856). The experiment in a line: TIRF microscopy of Qdot-bound motor on immobilised microtubules.
The target in test [2] is KLIF motor domain lacking the N-terminal extension fused to GFP (Trypanosoma brucei). The experiment in a line: gliding filament motility assay.
Test [3] has as its target microtubules polymerised from bovine tubulin, paclitaxel-stabilised (bovine) (UniProt Q6B856). The experiment in a line: two-MT assay.

As to “KLIF motor domain construct (amino acids 1-672) fused to a C-terminal biotin tag (domain or fragment)”, the half-life of association with MTs in test [1] was more than 5 min.

The substance “microtubules polymerised from bovine tubulin, paclitaxel-stabilised (from UniProt Q6B856 1-445) (complex)” gave a percent of filaments dissociated within 2.5 minutes in test [2] of more than 50%.

On to “KLIF motor domain construct (amino acids 1-672) fused to a C-terminal GFP (mClover3) tag (domain or fragment)”, for which the half-life of plus end to plus end tethering of two MTs by KLIF in test [3] came to 1.7 min.
